Reference: patent publication US20180104303A1 (UNIVERSITE DE LA ROCHELLE, published 2018)

B1: Diprotin A (IPI) (peptide)
peptide: IPI
B2: AVPYQR (SEQ ID NO: 5) (peptide)
peptide: AVPYQR
B3: AP peptide (peptide)
peptide: AP
B4: VY peptide (peptide)
peptide: VY
B5: IY peptide (peptide)
peptide: IY
B6: VAPG (SEQ ID NO: 6) (peptide)
peptide: VAPG
B7: VAPFPEV (SEQ ID NO: 4) (peptide)
peptide: VAPFPEV
B8: GPL peptide (peptide)
peptide: GPL
B9: VGVAPG (SEQ ID NO: 7) (peptide)
peptide: VGVAPG
B10: KW peptide (peptide)
peptide: KW
B11: KY peptide (peptide)
peptide: KY
B12: VAP peptide (peptide)
peptide: VAP
B13: SAPLRVY (SEQ ID NO: 3) (peptide)
peptide: SAPLRVY
B14: LKP peptide (peptide)
peptide: LKP

Columns and labels:
Assay in all cases: cell-based or functional assay
[1] = target: DPP-IV from pig kidney (pig, UniProt P22411 38-766, limits assumed)
[2] = target: T1, recombinant alpha-glucosidase from Saccharomyces cerevisiae, which is a maltase (Saccharomyces cerevisiae)
[3] = target: T1, recombinant alpha-glucosidase from …; remark: listed apart in the source
[4] = target: T1, recombinant alpha-glucosidase from …; remark: listed apart in the source

Chain of DPP-IV from pig kidney (P22411 38-766 limits assumed): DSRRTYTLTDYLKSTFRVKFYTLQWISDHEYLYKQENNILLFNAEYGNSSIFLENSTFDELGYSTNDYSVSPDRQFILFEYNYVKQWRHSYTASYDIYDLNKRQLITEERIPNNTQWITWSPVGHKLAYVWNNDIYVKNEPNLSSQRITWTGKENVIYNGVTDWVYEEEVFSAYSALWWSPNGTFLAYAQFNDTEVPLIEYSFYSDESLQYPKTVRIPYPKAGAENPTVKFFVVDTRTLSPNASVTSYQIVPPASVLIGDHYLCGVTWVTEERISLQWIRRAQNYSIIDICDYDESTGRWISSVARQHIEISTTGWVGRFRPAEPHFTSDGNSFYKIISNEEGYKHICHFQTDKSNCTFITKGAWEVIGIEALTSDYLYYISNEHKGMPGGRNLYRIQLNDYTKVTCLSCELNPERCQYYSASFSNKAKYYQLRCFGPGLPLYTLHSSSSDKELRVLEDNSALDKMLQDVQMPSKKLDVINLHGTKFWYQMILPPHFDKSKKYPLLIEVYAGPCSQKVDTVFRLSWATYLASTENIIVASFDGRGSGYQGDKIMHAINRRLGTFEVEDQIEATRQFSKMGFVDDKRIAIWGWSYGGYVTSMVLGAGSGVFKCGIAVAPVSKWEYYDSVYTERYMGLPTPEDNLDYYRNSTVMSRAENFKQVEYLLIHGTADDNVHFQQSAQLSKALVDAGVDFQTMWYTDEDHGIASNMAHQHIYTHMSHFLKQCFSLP

Row | Binder | (IC50) in mmol/l, inhibition of DPP-IV [1] [mmol/L] | Inhibitory activity on α-glucosidase (IC50) in mg/ml [2] [mg/mL] | Inhibitory activity on α-glucosidase (IC50) in mmol/l [2] [mmol/L] | IC50 (inhibition of the activity of α-glucosidase in vitro) [3] [µM] | IC50 ratio against acarbose [3] [fold] | Inhibitory activity on α-glucosidase (IC50) [4] [mM] | IC50 ratio against the AP and VAP peptides [3] [fold]
1 | B1 | 0.0121 |  |  |  |  |  | 
2 | B2 | 5.7 | 2.34 | 3.19 |  |  |  | 
3 | B3 | 4.78 | 0.0025 | 0.0136 | 13.6 | ~874 | 0.0136 | 
4 | B4 |  | 0.756 | 2.7 |  |  | 2.7 | ~135
5 | B5 |  | 3.6 | 12.3 |  |  | 12.3 | 
6 | B6 | 2.27 | 1.39 | 4.05 |  |  |  | 
7 | B7 | 1.18 | 2.03 | 2.68 |  |  |  | 
8 | B8 | 1.85 | 1.37 | 4.82 |  |  | 4.82 | ~243
9 | B9 | 10.7 | 2.29 | 4.59 |  |  |  | 
10 | B10 |  | 4.24 | 12.8 |  |  | 12.8 | 
11 | B11 |  | 3.39 | 11 |  |  | 11 | 
12 | B12 | 4.82 | 0.0057 | 0.02 | 20 | ~595 | 0.02 | 
13 | B13 | 1.06 | 1.42 | 1.76 |  |  |  | 
14 | B14 |  | 2.53 | 7.11 |  |  | 7.11 | ~355
